This passage reports binding result, half-life of HA-TRAF6 (35S pulse-chase), ODC-RANKp with AZ and half-life of HA-TRAF6 (35S pulse-chase), ODC-RANKp without AZ results from patent publication US20070042463A1 (BURNHAM INSTITUTE, published 2007).

The chains are these.
B1: SIP-L (other)
chain: MASEELQKDLEEVKVLLEKATRKRVRDALTAEKSKIETEIKNKMQQKSQKKAELLDNEKPAAVVAPITTGYTVKISNYGWDQSDKFVKIYITLTGVHQVPTENVQVHFTERSFDLLVKNLNGKSYSMIVNNLLKPISVEGSSKKVKTDTVLILCRKKVENTRWDYLTQVEKECKEKEKPSYDTETDPSEGLMNVLKKIYEDGDDDMKRTINKAWVESREKQAKGDTEF
B2: ODC-RANK peptide (protein, part only; not given: Order of parts uncertain, part only)
chain, part: MEQKLISEEDLMNNFGNEEFDCHFLDEGFTAKDILDQKINEVSSSDDKDAFYVADLGDILKKHLRWLKALPRVTPFYAVKCNDSKAIVKTLAATGTGFDCASKTEIQLVQSLGVPPERIIYANPCKQVSQIKYAANNGVQMMTFDSEVELMKVARAHPKAKLVLRIATDDSKAVCRLSVKFGATLRTSRLLLERAKELNIDVVGVSFHVGSGCTDPETFVQAISDARCVFDMGAEVGFSMYLLDIGGGFPGSEDVKLKFEEITGVINPALDKYFPSDSGVRIIAEPGRYYVASAFTLAVNIIAKKIVLKEQTGSDDEDESSEQTFMYYVNDGVYGSFNCILYDHAHVKPLLQKRPKPDEKYYSSSIWGPTCDGLDRIVERCDLPEMHVGDWMLFENMGAYTVAAASTFNGFQRPTIYYVMSGPAWQLMQQFQNPDFPPEVEEQDASTLPVSCAWESGMKRHRAACASASINVAGGGSGGGGSGGGGSGGGGS
B3: SIP-S (other)
chain: MASEELQKDLEEVKVLLEKATRKRVRDALTAEKSKIETEIKNKMQQKSQKKAELLDNEKPAAVVAPITTGYTDGISQISL
notes: B42 fusion in yeast two-hybrid
B4: Siah-1 (other)
chain: MVIIIFLLPPYVFISEMSRQTATALPTGTSKCPPSQRVPALTGTTASNNDLASLFECPVCFDYVLPPILQCQSGHLVCSNCRPKLTCCPTCRGPLGSIRNLAMEKVANSVLFPCKYASSGCEITLPHTEKADHEELCEFRPYSCPCPGASCKWQGSLDAVMPHLMHQHKSITTLQGEDIVFLATDINLPGAVDWVMMQSCFGFHFMLVLEKQEKYDGHQQFFAIVQLIGTRKQAENFAYRLELNGHRRRLTWEATPRSIHEGIATAIMNSDCLVFDTSIAQLFAENGNLGINVTISMC
notes: also called Siah-1α; Siah 1α
B5: APC (2681-2843) (other, human, UniProt P25054 2681-2843, looked up)
chain: PVIDSVSEKANPNIKDSKDNQAKQNVGNGSVPMRTVGLENRLNSFIQVDAPDQKGTEIKPGQNNPVPVSETNESSIVERTPFSSSSSSKHSSPSGTVAARVTPFNYNPSPRKSSADSTSARPSQIPTPVNNNTKKRDSKTDSTESSGTQSPKRHSGSYLVTSV
notes: LexA or B42 fusion in yeast two-hybrid
B6: empty (LexA DNA-binding domain without insert) (other, UniProt P0A7C2 1-202, looked up)
chain: MKALTARQQEVFDLIRDHISQTGMPPTRAEIAQRLGFRSPNAAEEHLKALARKGVIEIVSGASRGIRLLQEEEEGLPLVGRVAAGEPLLAQQHIEGHYQVDPSLFKPNADFLLRVSGMSMKDIGIMDGDLLAVHKTQDVRNGQVVVARIDDEVTVKRLKKQGNKVELLPENSEFKPIVVDLRQQSFTIEGLAVGVIRNGDWL

The target in one data set is T1, Siah-1 (22-298) (human, UniProt Q8IUQ4 6-282).
T1 construct: also called Siah-1α amino acids 22-298; LexA/Siah-1 bait
T1 sequence: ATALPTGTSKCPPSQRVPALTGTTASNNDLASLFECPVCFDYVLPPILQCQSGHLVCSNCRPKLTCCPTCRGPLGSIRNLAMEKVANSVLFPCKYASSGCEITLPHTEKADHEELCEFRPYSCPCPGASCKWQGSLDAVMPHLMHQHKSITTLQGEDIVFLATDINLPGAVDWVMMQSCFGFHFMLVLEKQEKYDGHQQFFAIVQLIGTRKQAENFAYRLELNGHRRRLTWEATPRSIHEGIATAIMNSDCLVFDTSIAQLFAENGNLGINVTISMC
Kind of data set: yeast two-hybrid library screen; LexA-Siah-1 (22-298) bait, human embryonic brain cDNA clones.

Data set [1] deals with the molecule itself. As to the kind of experiment: yeast two-hybrid; LexA-SIP-L with B42-SIP-L; growth on leucine-deficient media (Leu+).
The next data set concerns the target HA-TRAF6. As to the kind of experiment: cell-based or functional assay.
Data set [2] has as its target B1. As to the kind of experiment: yeast two-hybrid; LexA-SIP-L with B42-SIP-S; Leu+ growth - and β-Gal -.
For the next data set, the target named is T2, SAF-1 (human, UniProt Q9Y3I1 92-522).
T2 construct: also called SAF-1α; Skp1-Associated F-box protein-1
T2 sequence: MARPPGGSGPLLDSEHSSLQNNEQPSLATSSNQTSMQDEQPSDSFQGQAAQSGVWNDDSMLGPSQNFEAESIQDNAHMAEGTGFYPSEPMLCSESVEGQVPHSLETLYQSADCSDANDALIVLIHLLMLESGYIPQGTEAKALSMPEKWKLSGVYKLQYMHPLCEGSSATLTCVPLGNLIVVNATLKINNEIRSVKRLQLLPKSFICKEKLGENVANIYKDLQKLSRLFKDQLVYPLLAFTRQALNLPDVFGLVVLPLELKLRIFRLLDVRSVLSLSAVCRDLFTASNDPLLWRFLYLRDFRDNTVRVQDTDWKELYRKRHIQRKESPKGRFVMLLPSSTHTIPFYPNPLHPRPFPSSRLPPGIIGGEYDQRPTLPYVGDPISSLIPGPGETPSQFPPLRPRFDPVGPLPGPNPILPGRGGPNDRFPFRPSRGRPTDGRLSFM
As to the kind of experiment: yeast two-hybrid (FIG. 6A).

Data set [3] deals with B6. As to the kind of experiment: yeast two-hybrid; empty LexA with B42-APC(2681-2843); Leu+ growth - and β-Gal -.
Data set [4] deals with B1. Kind of data set: yeast two-hybrid; empty LexA with B42-SIP-L; Leu+ growth - and β-Gal -.

Experimental for SAF-1: Transformed cells were grown on semi-solid media lacking leucine or containing leucine as a control.
Experimental for Siah-1 (22-298): Transformations were performed by a LiCi method using 0.25 mg of pJG4-5-cDNA library DNA, and 5 mg of denatured salmon sperm carrier DNA. Clones that formed on Leu deficient BMM plates containing 2% galactose/1% raffinose were transferred to BMM plates containing leucine and 2% glucose, and filter assays were performed for β-galactosidase measurements as previously described.

Consider B1, for which the binding result (with Siah-1 (22-298); in data set [1]) was “binds” each time.
In the data set with HA-TRAF6, B2 registered a half-life of HA-TRAF6 (35S pulse-chase), ODC-RANKp with AZ below 1 h and a half-life of HA-TRAF6 (35S pulse-chase), ODC-RANKp without AZ of 2 h.
Consider B3, for which the binding result in the data set with Siah-1 (22-298) is recorded as “binds”; with SIP-L [2] it was “no binding”.
As for B4, the binding result with SAF-1 is on record as “no binding”.
As to B5, the binding result in data set [3] is reported as “no binding”; in the data set with Siah-1 (22-298), “binds”.
B6: the binding result with SIP-L [4] was “no binding”.
